Reference: patent publication US20040219131A1 (MAXYGEN, published 2004)
Positions count from the first letter of the chain named.

T1: interferon-alpha receptor (human, UniProt P17181 28-557; P48551 27-515)
T1 sequence (looked up) 1: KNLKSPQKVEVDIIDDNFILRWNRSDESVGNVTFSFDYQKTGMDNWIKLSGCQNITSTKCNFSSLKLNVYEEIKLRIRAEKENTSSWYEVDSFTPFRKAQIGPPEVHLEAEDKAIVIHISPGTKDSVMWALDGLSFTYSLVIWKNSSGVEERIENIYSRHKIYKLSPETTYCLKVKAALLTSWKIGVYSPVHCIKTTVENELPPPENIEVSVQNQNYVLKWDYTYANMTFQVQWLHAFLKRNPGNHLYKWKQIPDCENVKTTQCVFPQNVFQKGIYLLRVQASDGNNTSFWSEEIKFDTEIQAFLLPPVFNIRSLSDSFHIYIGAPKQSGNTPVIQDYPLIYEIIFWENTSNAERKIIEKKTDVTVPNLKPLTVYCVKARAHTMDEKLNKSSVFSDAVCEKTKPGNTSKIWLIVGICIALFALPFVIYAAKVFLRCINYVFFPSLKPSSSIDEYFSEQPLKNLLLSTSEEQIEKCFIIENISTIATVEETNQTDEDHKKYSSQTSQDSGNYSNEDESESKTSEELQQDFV
T1 sequence (looked up) 2: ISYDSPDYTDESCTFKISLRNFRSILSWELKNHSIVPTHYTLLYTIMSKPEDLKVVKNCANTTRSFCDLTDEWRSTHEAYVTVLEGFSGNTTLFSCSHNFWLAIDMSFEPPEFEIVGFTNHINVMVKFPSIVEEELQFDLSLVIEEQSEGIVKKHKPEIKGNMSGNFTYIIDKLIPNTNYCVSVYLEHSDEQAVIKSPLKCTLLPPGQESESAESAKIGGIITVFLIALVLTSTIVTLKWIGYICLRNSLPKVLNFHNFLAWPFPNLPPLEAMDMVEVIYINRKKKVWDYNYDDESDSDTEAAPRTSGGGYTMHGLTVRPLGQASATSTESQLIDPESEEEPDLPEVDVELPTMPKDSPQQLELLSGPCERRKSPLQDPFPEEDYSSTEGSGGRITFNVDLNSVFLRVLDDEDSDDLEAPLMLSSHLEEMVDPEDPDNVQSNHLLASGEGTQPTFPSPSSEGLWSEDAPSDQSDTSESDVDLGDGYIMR

B1: IFN-alpha Con1 (ligand)
chain: CDLPQTHSLGNRRALILLAQMRRISPFSCLKDRHDFGFPQEEFDGNQFQKAQAISVLHEMIQQTFNLFSTKDSSAAWDESLLEKFYTELYQQLNDLEACVIQEVGVEETPLMNVDSILAVKKYFQRITLYLTEKKYSPCAWEVVRAEIMRSFSLSTNLQERLRRKE
B2: B9x27 (ligand)
chain: CDLPQTHSLSNRRTLMLMAQMRRISPFSCLKDRHDFGFPEEEFDGHQFQKVQAIFLLYELIQQTFNLFSTKNSSAAWDETLLEKFYIELFQQMNNLEACVIQEVGVEEIALMNVDSILAVRKYFRRITLYLTKKKYSPCSWEVVRAEIMRSFSFSTNLQKRLRRKE
B3: B9x25 (ligand)
chain: B2 chain with Q47H, K133E, S140A
B4: B9x22 (ligand)
chain: B2 chain with Q47H, V51T, F55S, L56V, Y58H, K133E, S140A
B5: B9x24 (ligand)
chain: B2 chain with V51T, F55S, L56V, Y58H
B6: B9x21 (ligand)
chain: B2 chain with V51T, F55S, L56V, Y58H, K133E, S140A
B7: B9x23 (ligand)
chain: B2 chain with K133E, S140A
B8: B9x26 (ligand)
chain: B2 chain with Q47H, V51T, F55S, L56V, Y58H
B9: B9x28 (ligand)
chain: B2 chain with Q47H
B10: B9x14 (ligand)
chain: CDLPQTHSLGHRRTMMLLAQMRRISLFSCLKDRHDFRFPQEEFDGNHFQKVQAIFLFYEMMQQTFNLFSTKNSSAAWDETLLEKFYIELFQQMNDLEACVMQEVGVEETPLMNVDSILAVRKYFQRITLYLTEKKYSPCAWEVVRAEIMRSFSFSTNLQKRLRRKE
B11: B9x12 (ligand)
chain: B10 chain with H47Q, E133K, A140S
B12: B9x16 (ligand)
chain: B10 chain with H47Q
B13: B9x15 (ligand)
chain: B10 chain with H47Q, V51T, F55S, L56V, Y58H, E133K, A140S
B14: B9x17 (ligand)
chain: B10 chain with V51T, F55S, L56V, Y58H
B15: B9x18 (ligand)
chain: B10 chain with H47Q, V51T, F55S, L56V, Y58H
B16: B9x11 (ligand)
chain: B10 chain with E133K, A140S
B17: 25Ep05 (ligand)
chain: CDLPQTHSLSNRRTLMLMAQMRRISPFSCLKDRHDFGFPEEEFDGHQFQKTQAISVLHELIQQTFNLFSTKDSSAAWDETLLEKFYIELFQQMNDLEACVIQEVGVEEIALMNVDSILAVRKYFRRITLYLTEKKYSPCAWEVVRAEIMRSFSLSTNLQESLRSKE

target: T1, interferon-alpha receptor; assay: cell-based or functional assay

| Binder | Antiviral activity relative to huIFNα-2b (EC50 huIFN-alpha 2b/EC50 sample), EMCV/HuH-7 assay |
| --- | --- |
| B1 | ~2 fold relative to huIFNα-2b |
| B2 | ≥ 10 fold relative to huIFNα-2b |
| B3 | ≥ 10 fold relative to huIFNα-2b |
| B4 | ≥ 10 fold relative to huIFNα-2b |
| B5 | ≥ 5 fold relative to huIFNα-2b |
| B6 | ≥ 10 fold relative to huIFNα-2b |
| B7 | ≥ 10 fold relative to huIFNα-2b |
| B8 | ≥ 5 fold relative to huIFNα-2b |
| B9 | ≥ 10 fold relative to huIFNα-2b |
| B10 | ≥ 10 fold relative to huIFNα-2b |
| B11 | ≥ 10 fold relative to huIFNα-2b |
| B12 | ≥ 10 fold relative to huIFNα-2b |
| B13 | ≥ 5 fold relative to huIFNα-2b |
| B14 | ≥ 10 fold relative to huIFNα-2b |
| B15 | ≥ 10 fold relative to huIFNα-2b |
| B16 | ≥ 10 fold relative to huIFNα-2b |
| B17 | ≥ 2.5 fold relative to huIFNα-2b |

target: T1, interferon-alpha receptor; assay: cell-based or functional assay; remark: another data set of the same source

| Binder | Antiproliferative activity relative to huIFNα-2b (EC50 huIFN-alpha 2b/EC50 sample), Daudi cell thymidine incorporation assay |
| --- | --- |
| B1 | ~1.5 fold relative to huIFNα-2b |
| B2 | ≤ 0.25 fold relative to huIFNα-2b |
| B3 | ≤ 0.5 fold relative to huIFNα-2b |
| B4 | ≤ 0.5 fold relative to huIFNα-2b |
| B5 | ≤ 0.25 fold relative to huIFNα-2b |
| B6 | ≤ 0.5 fold relative to huIFNα-2b |
| B7 | ≤ 0.5 fold relative to huIFNα-2b |
| B8 | ≤ 0.25 fold relative to huIFNα-2b |
| B10 | ≤ 0.5 fold relative to huIFNα-2b |
| B12 | ≤ 0.25 fold relative to huIFNα-2b |
| B13 | ≤ 0.25 fold relative to huIFNα-2b |
| B14 | ≤ 0.5 fold relative to huIFNα-2b |
| B15 | ≤ 0.25 fold relative to huIFNα-2b |
